According to PMC6416899:

Target: PtoMYB221 fused to Cub (split-ubiquitin bait) (Populus tomentosa)

decrease in LUC activity by 2.56 μg PtoMYB221 effector plasmid against the control without PtoMYB221, with 600 to 1200 ng PtoUBC34 (35.16% with 1200 ng; 72.66% when no exogenous PtoUBC34 was added): 54.8%
Substance: full-length PtoUBC34 fused to Nub (split-ubiquitin prey) (from UniProt A0A482P071 1-235) (enzyme)
